Experimental data as given in US20250347696A1, “SELF-ACTIVATING FÖRSTER RESONANCE ENERGY TRANSFER (saFRET) BIOSENSORS AND METHODS FOR MAKING AND USING THEM” (The Regents of the University of California, priority 2021, published 2025).

Assays:
[1] = target: improved ZAP70 FRET biosensor with substrate … (SEQ ID NO:113), kinase domain removed
[2] = target: improved ZAP70 FRET biosensor with substrate … (SEQ ID NO:113), kinase domain removed; assay: cell-based or functional assay
[3] = target: parental (WT) ZAP70 FRET biosensor with LAT Y191 substrate … (SEQ ID NO:107), kinase domain removed; assay: cell-based or functional assay

ECFP/FRET ratio change (sensitivity) of the biosensor in Jurkat T cells upon CD3/CD28-antibody stimulation [2]: 25%
ECFP/FRET ratio change (sensitivity) of the biosensor in Jurkat T cells upon CD3/CD28-antibody stimulation [3]: 5.8%
B1: ZAP70 kinase (Zeta-chain-associated protein kinase 70), endogenous in Jurkat T cells (protein)
chain: MPDPAAHLPFFYGSISRAEAEEHLKLAGMADGLFLLRQCLRSLGGYVLSLVHDVRFHHFPIERQLNGTYAIAGGKAHCGPAELCEFYSRDPDGLPCNLRKPCNRPSGLEPQPGVFDCLRDAMVRDYVRQTWKLEGEALEQAIISQAPQVEKLIATTAHERMPWYHSSLTREEAERKLYSGAQTDGKFLLRPRKEQGTYALSLIYGKTVYHYLISQDKAGKYCIPEGTKFDTLWQLVEYLKLKADGLIYCLKEACPNSSASNASGAAAPTLPAHPSTLTHPQRRIDTLNSDGYTPEPARITSPDKPRPMPMDTSVYESPYSDPEELKDKKLFLKRDNLLIADIELGCGNFGSVRQGVYRMRKKQIDVAIKVLKQGTEKADTEEMMREAQIMHQLDNPYIVRLIGVCQAEALMLVMEMAGGGPLHKFLVGKREEIPVSNVAELLHQVSMGMKYLEEKNFVHRDLAARNVLLVNRHYAKISDFGLSKALGADDSYYTARSAGKWPLKWYAPECINFRKFSSRSDVWSYGVTMWEALSYGQKPYKKMKGPEVMAFIEQGKRMECPPECPPELYALMSDCWIYKWEDRPDFLTVEQRMRACYYSLASKVEGPPGSTQKAEAACA
increase in sensitivity compared to the parental template (SREYVNVSGEL) [1]: > 4 fold
